B1: BBSome complex member BBS4 (Homo sapiens), Q96RK4 (parent)
chain: MAEERVATRTQFPVSTESQKPRQKKAPEFPILEKQNWLIHLHYIRKDYEACKAVIKEQLQETQGLCEYAIYVQALIFRLEGNIQESLELFQTCAVLSPQSADNLKQVARSLFLLGKHKAAIEVYNEAAKLNQKDWEISHNLGVCYIYLKQFNKAQDQLHNALNLNRHDLTYIMLGKIHLLEGDLDKAIEVYKKAVEFSPENTELLTTLGLLYLQLGIYQKAFEHLGNALTYDPTNYKAILAAGSMMQTHGDFDVALTKYRVVACAVPESPPLWNNIGMCFFGKKKYVAAISCLKRANYLAPFDWKILYNLGLVHLTMQQYASAFHFLSAAINFQPKMGELYMLLAVALTNLEDIENAKRAYAEAVHLDKCNPLVNLNYAVLLYNQGEKKNALAQYQEMEKKVSLLKDNSSLEFDSEMVEMAQKLGAALQVGEALVWTKPVKDPKSKHQTTSTSKPASFQQPLGSNQALGQAMSSAAAYRTLPSGAGGTSQFTKPPSLPLEPEPAVESSPTETSEQIREK
partner: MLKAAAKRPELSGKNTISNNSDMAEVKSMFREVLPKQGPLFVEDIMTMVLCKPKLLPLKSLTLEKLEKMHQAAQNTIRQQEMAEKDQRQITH

Variants of: B1
Conditions: with bbip1_human BBIP1, A8MTZ0

| Variant | effect of a mutation on the interaction |
| --- | --- |
| L343A | with no effect |
| L343E | with no effect |
| L343K | with no effect |
| L343T | disrupting interaction strength |
| L343P | disrupting interaction strength |
| L343H | disrupting interaction strength |
| L343R | disrupting interaction strength |
| S328K | with no effect |
| S328A | with no effect |
| S328E | with no effect |
| M342W | disrupting interaction strength |
| M342V | disrupting interaction strength |
| M342T | disrupting interaction strength |
| M342E | with no effect |
| M342A | with no effect |
| M342R | disrupting interaction strength |
| M342K | disrupting interaction strength |
| P335E | with no effect |
| P335T | disrupting interaction strength |
| P335A | with no effect |
| P335K | with no effect |
| G338K | with no effect |

| Variant | effect of a mutation on the interaction |
| --- | --- |
| G338A | with no effect |
| G338E | disrupting interaction strength |
| G338R | disrupting interaction strength |
| K336E | with no effect |
| K336A | with no effect |
| L327T | disrupting interaction strength |
| L340E | with no effect |
| L340A | with no effect |
| L340F | disrupting interaction strength |
| L340K | with no effect |
| A329E | with no effect |
| A329K | with no effect |
| F333K | with no effect |
| F333A | with no effect |
| F333E | with no effect |
| Q334K | with no effect |
| Q334A | with no effect |
| Q334E | with no effect |
| Q334D | disrupting interaction strength |
| M337E | with no effect |
| M337K | with no effect |
| M337A | with no effect |

| Variant | effect of a mutation on the interaction |
| --- | --- |
| E339A | with no effect |
| E339K | with no effect |
| Y341C | disrupting interaction strength |
| Y341A | disrupting interaction strength |
| Y341D | disrupting interaction strength |
| Y341E | with no effect |
| Y341K | with no effect |
| A330K | with no effect |
| A330E | with no effect |
| A330V | disrupting interaction strength |
| A330F | disrupting interaction strength |
| I331K | with no effect |
| I331A | with no effect |
| I331F | disrupting interaction strength |
| I331E | with no effect |
| L344A | with no effect |
| N332K | with no effect |
| N332Y | disrupting interaction strength |
| N332A | with no effect |
| N332I | disrupting interaction strength |
| N332E | with no effect |
| N332F | disrupting interaction strength |

More lines, now with the values ahead:

| effect of a mutation on the interaction | Variant |
| --- | --- |
| with no effect | P372E |
| disrupting interaction strength | P372L |
| with no effect | P372K |
| disrupting interaction strength | P372S |
| with no effect | P372A |
| with no effect | K358A |
| with no effect | K358E |
| disrupting interaction strength | A364T |
| disrupting interaction strength | A364V |
| with no effect | A364K |
| with no effect | A364E |
| with no effect | V374E |
| with no effect | V374K |
| with no effect | V374A |
| with no effect | L348K |
| with no effect | L348A |
| disrupting interaction strength | L348P |
| disrupting interaction strength | L348T |
| with no effect | L348E |
| disrupting interaction strength | L348R |
| with no effect | H366A |
| with no effect | H366K |
| with no effect | H366E |
| disrupting interaction strength | V346A |
| with no effect | V346K |

| effect of a mutation on the interaction | Variant |
| --- | --- |
| disrupting interaction strength | V346E |
| with no effect | R359K |
| with no effect | R359A |
| with no effect | R359E |
| with no effect | L351K |
| disrupting interaction strength | L351P |
| with no effect | L351E |
| with no effect | L351A |
| with no effect | E352K |
| with no effect | E352A |
| with no effect | N371A |
| with no effect | N371E |
| with no effect | N371K |
| with no effect | K369E |
| with no effect | K369A |
| with no effect | N356K |
| with no effect | N356E |
| with no effect | N356A |
| disrupting interaction strength | A347D |
| with no effect | A347E |
| with no effect | A347K |
| with no effect | N375A |
| with no effect | E355K |
| with no effect | E355A |
| with no effect | T349E |

| effect of a mutation on the interaction | Variant |
| --- | --- |
| with no effect | T349K |
| with no effect | T349A |
| with no effect | A362E |
| with no effect | A362K |
| with no effect | L367K |
| disrupting interaction strength | L367P |
| with no effect | L367E |
| with no effect | L367A |
| disrupting interaction strength | Y361C |
| with no effect | Y361E |
| with no effect | Y361A |
| with no effect | Y361K |
| with no effect | V365A |
| with no effect | V365E |
| with no effect | V365K |
| with no effect | A345E |
| with no effect | A345K |
| disrupting interaction strength | A345V |
| disrupting interaction strength | A345T |
| with no effect | D353A |
| disrupting interaction strength | D353G |
| with no effect | D353K |
| with no effect | D353E |
| with no effect | C370E |
| with no effect | C370A |

| effect of a mutation on the interaction | Variant |
| --- | --- |
| with no effect | C370K |
| with no effect | E363A |
| disrupting interaction strength | E363G |
| with no effect | E363K |
| disrupting interaction strength | D368G |
| with no effect | D368K |
| with no effect | D368E |
| with no effect | D368A |
| with no effect | A360K |
| with no effect | A360E |
| with no effect | L344E |
| with no effect | L344K |
| with no effect | A357K |
| disrupting interaction strength | A357V |
| with no effect | A357E |
| disrupting interaction strength | N350D |
| with no effect | N350E |
| with no effect | N350K |
| with no effect | N350A |
| with no effect | L373E |
| with no effect | L373A |
| with no effect | L373K |
| disrupting interaction strength | L373S |
